Literature values in publication PMC11741591.
pKd: −log10 of the molar value.

Target: reelin receptors (ApoER2/VLDLR) (Homo sapiens) (UniProt Q14114)
UniProt Q14114, sequence (Q14114 33-826): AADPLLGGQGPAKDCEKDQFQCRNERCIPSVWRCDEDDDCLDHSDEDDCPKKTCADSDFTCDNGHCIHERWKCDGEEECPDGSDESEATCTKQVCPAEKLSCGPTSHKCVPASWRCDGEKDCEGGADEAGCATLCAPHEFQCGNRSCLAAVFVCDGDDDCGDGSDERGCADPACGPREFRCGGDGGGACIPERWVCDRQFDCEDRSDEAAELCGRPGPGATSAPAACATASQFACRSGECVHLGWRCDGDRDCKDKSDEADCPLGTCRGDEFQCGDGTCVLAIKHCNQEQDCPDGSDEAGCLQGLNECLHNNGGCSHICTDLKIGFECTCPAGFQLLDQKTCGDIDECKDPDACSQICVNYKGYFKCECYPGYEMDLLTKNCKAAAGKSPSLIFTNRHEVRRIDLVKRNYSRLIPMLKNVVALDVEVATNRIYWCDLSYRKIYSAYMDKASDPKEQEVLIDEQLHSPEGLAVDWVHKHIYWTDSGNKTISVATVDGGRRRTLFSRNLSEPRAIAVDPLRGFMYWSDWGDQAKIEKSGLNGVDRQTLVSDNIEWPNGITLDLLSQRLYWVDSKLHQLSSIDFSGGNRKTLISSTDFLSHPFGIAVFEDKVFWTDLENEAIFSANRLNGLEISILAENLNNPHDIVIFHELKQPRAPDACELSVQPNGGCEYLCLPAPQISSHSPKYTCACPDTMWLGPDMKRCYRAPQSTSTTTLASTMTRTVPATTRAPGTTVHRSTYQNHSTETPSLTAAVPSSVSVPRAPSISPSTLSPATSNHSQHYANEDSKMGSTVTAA

reelin, sequence (P78509 26-3460): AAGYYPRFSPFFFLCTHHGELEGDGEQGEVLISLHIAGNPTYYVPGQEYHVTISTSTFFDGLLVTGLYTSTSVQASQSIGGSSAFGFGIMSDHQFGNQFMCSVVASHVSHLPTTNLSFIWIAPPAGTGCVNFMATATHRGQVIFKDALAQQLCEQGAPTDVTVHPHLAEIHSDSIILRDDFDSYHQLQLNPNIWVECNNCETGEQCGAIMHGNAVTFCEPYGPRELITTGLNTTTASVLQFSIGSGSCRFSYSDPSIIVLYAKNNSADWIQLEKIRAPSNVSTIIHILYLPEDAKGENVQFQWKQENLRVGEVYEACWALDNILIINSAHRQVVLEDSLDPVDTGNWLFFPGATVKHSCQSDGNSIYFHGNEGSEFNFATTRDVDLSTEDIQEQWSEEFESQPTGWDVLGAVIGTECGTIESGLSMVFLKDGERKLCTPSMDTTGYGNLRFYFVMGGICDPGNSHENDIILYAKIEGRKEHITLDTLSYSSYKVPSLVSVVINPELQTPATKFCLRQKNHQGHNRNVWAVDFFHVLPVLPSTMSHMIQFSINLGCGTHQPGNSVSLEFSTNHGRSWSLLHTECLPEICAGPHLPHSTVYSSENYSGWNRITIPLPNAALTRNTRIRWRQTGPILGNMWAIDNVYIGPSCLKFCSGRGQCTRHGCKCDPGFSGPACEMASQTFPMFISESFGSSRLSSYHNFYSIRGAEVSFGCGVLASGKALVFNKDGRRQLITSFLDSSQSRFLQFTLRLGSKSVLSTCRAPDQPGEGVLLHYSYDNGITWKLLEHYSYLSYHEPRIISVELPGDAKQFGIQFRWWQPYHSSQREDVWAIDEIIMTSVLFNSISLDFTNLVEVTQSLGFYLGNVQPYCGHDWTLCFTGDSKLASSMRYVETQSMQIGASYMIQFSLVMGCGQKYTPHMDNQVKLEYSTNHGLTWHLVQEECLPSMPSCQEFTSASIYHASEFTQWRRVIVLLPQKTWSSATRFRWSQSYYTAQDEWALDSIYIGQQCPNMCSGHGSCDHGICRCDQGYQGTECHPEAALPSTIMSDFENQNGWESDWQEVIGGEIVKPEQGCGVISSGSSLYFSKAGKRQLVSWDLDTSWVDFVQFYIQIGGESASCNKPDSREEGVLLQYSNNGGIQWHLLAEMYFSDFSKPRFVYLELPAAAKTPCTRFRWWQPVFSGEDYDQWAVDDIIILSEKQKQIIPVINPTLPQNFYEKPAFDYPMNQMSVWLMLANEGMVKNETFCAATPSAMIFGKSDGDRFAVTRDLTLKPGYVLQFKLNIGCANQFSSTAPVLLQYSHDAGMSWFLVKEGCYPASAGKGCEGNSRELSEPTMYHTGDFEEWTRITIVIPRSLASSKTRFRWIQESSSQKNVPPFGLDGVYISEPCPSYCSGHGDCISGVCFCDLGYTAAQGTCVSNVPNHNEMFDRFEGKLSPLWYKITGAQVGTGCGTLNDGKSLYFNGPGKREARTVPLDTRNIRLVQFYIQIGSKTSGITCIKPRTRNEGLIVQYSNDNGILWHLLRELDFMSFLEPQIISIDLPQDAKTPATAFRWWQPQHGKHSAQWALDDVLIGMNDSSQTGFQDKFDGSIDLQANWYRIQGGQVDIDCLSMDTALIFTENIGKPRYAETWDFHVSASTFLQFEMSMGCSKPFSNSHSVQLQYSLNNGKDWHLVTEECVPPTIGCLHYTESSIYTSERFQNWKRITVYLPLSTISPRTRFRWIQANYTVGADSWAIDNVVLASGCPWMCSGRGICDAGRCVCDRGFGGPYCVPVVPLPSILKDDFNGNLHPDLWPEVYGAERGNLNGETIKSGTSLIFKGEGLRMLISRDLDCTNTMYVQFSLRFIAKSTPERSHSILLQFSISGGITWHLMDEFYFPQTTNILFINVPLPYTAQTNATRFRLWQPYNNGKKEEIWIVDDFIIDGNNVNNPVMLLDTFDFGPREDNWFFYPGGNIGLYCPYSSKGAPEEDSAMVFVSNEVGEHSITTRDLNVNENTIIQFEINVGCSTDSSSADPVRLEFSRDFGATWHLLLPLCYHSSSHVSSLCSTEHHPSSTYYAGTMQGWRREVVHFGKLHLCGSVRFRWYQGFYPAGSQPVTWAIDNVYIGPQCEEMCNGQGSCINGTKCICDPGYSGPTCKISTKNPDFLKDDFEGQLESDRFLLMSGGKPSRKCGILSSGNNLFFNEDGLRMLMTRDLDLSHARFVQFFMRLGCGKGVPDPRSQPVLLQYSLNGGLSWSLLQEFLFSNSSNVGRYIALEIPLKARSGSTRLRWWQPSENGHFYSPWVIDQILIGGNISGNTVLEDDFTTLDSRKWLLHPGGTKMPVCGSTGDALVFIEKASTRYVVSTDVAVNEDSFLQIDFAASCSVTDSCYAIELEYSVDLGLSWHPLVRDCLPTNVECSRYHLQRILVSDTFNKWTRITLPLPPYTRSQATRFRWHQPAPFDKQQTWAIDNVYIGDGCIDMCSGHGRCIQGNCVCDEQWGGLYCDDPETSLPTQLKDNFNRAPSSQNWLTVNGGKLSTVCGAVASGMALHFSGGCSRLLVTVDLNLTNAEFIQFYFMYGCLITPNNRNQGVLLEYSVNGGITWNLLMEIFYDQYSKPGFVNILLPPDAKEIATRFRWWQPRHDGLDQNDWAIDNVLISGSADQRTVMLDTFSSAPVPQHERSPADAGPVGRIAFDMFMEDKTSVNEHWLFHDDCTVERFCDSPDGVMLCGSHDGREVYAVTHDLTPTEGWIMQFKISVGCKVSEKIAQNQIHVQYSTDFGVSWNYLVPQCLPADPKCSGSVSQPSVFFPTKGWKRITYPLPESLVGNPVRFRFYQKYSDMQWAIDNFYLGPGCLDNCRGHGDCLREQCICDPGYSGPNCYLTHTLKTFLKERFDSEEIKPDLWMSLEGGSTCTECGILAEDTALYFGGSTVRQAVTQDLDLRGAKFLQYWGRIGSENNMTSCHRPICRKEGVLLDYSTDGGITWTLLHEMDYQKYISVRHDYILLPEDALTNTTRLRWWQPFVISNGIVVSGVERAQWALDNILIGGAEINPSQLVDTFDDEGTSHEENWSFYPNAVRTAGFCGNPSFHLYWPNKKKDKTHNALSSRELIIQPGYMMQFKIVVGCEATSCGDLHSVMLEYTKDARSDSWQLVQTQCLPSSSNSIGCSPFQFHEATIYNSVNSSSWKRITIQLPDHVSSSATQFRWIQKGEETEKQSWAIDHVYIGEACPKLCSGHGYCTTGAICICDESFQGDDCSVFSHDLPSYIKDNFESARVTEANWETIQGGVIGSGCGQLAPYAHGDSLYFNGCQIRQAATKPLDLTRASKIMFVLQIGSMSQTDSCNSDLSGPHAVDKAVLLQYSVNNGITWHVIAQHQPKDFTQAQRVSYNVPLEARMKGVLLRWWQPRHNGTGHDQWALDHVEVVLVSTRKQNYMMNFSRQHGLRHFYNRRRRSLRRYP

pKd: 9.30
Substance: reelin (from UniProt P78509)
